Measurements taken from paper doi:10.1101/776187.

What was measured:
[1] = target: dynactin (bovine (purified from bovine brain))
[2] = target: human cytoplasmic dynein (recombinant complex of DHC, DIC, DLIC, Tctex, Robl and LC8) (human) (UniProt Q14204)

- processive run length of DDB^F684I on microtubules, single molecule TIRF [1]: 3.3 µm
- speed of DDB^F684I on microtubules, single molecule TIRF [1]: 0.43 µm/s
- processive run length of DDB^F684I on microtubules, single molecule TIRF [2]: 3.3 µm
- speed of DDB^F684I on microtubules, single molecule TIRF [2]: 0.43 µm/s
B1: full-length Drosophila Bicaudal D F684I mutant (Dm BicD/F684I) (natural protein)
chain: MSSASNNGPSADQSVQDLQMEVERLTRELDQVSSASAQSAQYGLSLLEEKSALQQKCEELETLYDNTRHELDITQEALTKFQTSQKVTNKTGIEQEDALLNESAARETSLNLQIFDLENELKQLRHELERVRNERDRMLQENSDFGRDKSDSEADRLRLKSELKDLKFRETRMLSEYSELEEENISLQKQVSSLRSSQVEFEGAKHEIRRLTEEVELLNQQVDELANLKKIAEKQMEEALETLQGEREAKYALKKELDGHLNRESMYHISNLAYSIRSNMEDNASNNSDGEEENLALKRLEADLSTELKSPDGTKCDLFSEIHLNELKKLEKQLESMESEKTHLTANLREAQTSLDKSQNELQNFMSRLALLAAHVDALVQLKKQIDVKEQGKEGGQKKDELEQQLRALISQYANWFTLSAKEIDGLKTDIAELQKGLNYTDATTTLRNEVTNLKNKLLATEQKSLDLQSDVQTLTHISQNAGQSLGSARSTLVALSDDLAQLYHLVCTVNGETPTRVLLDHKTDDMSFENDSLTAIQSQFKSDVFIAKPQIVEDLQGLADSVEIKKYVDTVSDQIKYLKTAVEHTIDMNKHKIRSEGGDALEKVNTEEMEELQEQIVKLKSLLSVKREQIGTLRNVLKSNKQTAEVALTNLKSKYENEKIIVSDTMSKLRNELRLLKEDAATISSLRAMFAARCEEYVTQVDDLNRQLEAAEEEKKTLNQLLRLAVQQKLALTQRLEEMEMDREMRHVRRPMPAQRGTSGKSSFSTRPSSRNPASSNANPF
